The text below walks through data of the DeepSol protein solubility set.

The series can be described thus: soluble on expression in E. coli; label from the status in PepcDB or PDB records.
In the case of “MGSDKIHHHHHHMSLVVGSARIDENGHISGGKPGDQTGNEVSTQAYYVHSKGWYCLRPKSITVANAIAEAMLQGCRNNNIGYCQGHRSNVIEQLRRVGKLSKISVKTEADCSSLVRACCIQAGFDPGNFNTASEASALKATGQFMEAIAVTSKTELFNGDVLVTKTKGHTVVVVSGNPRHGNTYYPKYEGTSGSIITALAAVGEKDTSKAHRAKIAAANGITNYAYTAAQNTKMVNLLKKGKLIKA”, the “soluble on expression in E. coli” value was “not soluble”.

On to “MRIVQATLEHLDLLAPLFVKYREFYGMLSYPESSRKFLEKRLRRKESVIYLALADEEDRLLGFCQLYPSFSSLSLKRVWILNDIYVAEEARRQLVADHLLQHAKQMARETHAVRMRVSTSVDNEVAQKVYESIGFREDQEFKNYTLPISDELS”, for which the “soluble on expression in E. coli” value was “soluble”.

On to “MAHHHHHHMCPYEERQELRISMGFAGRRPNLTFTSDTMDAHAYLVRHWALNAIAESAGKGMSVQRDSIPFLARSQHSIVNENKMTFLRPDGKIKYNIPKHWLLESDSSVNFLNASPGPVLPSEADNLLVCCTIYEERPEKCMRVYRVRTREDYIAVNQEILAAKCQLLEMNEVNGRNSMRISSRSTRASQQKERLGQTQRVLRTSMERKSINTAADSAGLPFSAFALSGLVSNAAFTIHKTDTSRQINIIHSFLRTEPTCKATIARSIVGNNVTLGPDVRITNSIILDNAEIGAGAIISNSVIGSSAMVNSGVRVVSCTVGPQCLVESNETDRVIRA”, for which the “soluble on expression in E. coli” value is recorded as “not soluble”. In the case of “MGSDKIHHHHHHMPINKLALVRYKTIDSCLQNRFRKWTLEDLMEACSDALYEYEGMTKGISRRTIQLDIQNMRSEKLGYNAPIIVTDKKFYSYEDKGYSITNSPLTQQDLGTLVEVLDVLKQFKGFGYFQELTGMVTRLEDKLYTHQHKGKSYIDFEKNELLKGLQHIDLLHKAIINKKTVDILYQSFKAASAQNITFYPYLLKEYRNRWFILGCNKRTKATMILALDRIEQFKELRSEKYMKPDFDVATYFDDVIGVSKMPNQEPQLIVCKISKEHAPYIITKPIHASQQIIRGEKDGTVFSIHVIWNFELERELLGFGEQLQVLAPRRIQGKLRARMKRAVAAYESEKKE” it was “not soluble”.

Turning to “MGSDKIHHHHHHMTLQQLRQVLTIAESNSMNEAAKKLFVSQPNLSATVREVEEELGITVFMRNNRGITVTAEGEEFLGYAKQVVEQYHLLENRYLNVESKKKFSVSMQHYSFAVKAFVQLAKEVGMDEYEFAVHETKTKEVIDNVKNLKSEIGVLYLSDFNEKVLRKLFKECDIEFKELFTCNTYVYLWKKHPLAGQKEITLDDLQEYPCLTFEQGVNNSFYYAEEMMSTYEYKRVIKADDRATMLNLMVGLNGFTLCSGIISEDLNGDDYAAIPLKESEKMHIGYIKHKGTKLSKLGEIYIDALKNYENKVL”, the “soluble on expression in E. coli” value is “not soluble”.

On to “MSLSGNYLPRNTLVESLGHAMLKLSGWKIEGQLPALDKFVVIGAHHTSNWDFVAFLAAKFVLRLNARWFGKHTLFNGPLGGLMRRWGGIPIQRHLKLNTVDQAIQAFREHREFMLIIAPEGTRKKVDRWRMGFYHIARGAGVPVVPAALDYENRRIVIGEPFWPTGNEDADLCSLIGFYRPFIPKKPHYAFLGDEGHHHHHH”, for which the “soluble on expression in E. coli” value is on record as “soluble”.

With “MGSDKIHHHHHHMSQPVWPNFYIIGAVKSGTTSLYAYLRQHPQVFLPAMKEPHFFTQPHPSPEQRHWIQYVGNVEQYQQLYRGAERFPRIGDASPSYLWCEEAPERIHAVQPDARIIVILRDPVQRAHAQYLMDFNEGVLDLPFVEALQRDWTRPDKGWGISQLYVELGRYTAQIMRYQQQFGAGQVHVCLLEDLKKNPLAVLEDIADFLEIDRGPLHDMDLETVHNVHRLPRGNWARQLASGHISRYIGEHLFPRTWGEFVWRNVFLREGRKPPMDAEARSFLQAIYTPEIERLEQLLGRPLPELRISWKFSEPAGQSLSTALPPKPSGNR”, the “soluble on expression in E. coli” value is listed as “not soluble”. In the case of “GPGSMQMEEKQAFFVESVDGRKFKMVIRGDLGKLSVAKIRRYLKSYGVPENQLLLAGNRVLEDAMLGEQFGLENEGVLHLREPTTVQHLAPAAVPSTAQSRTQLQQKPELSYEPQSAWRETRYEPAAHDARQMQREIERLQRQVEAAEARNADLEHQLEQVAESSAPYPPRGGAGGARRMSNSSDLDGLQVAKQSLKILAQKLGVSLQFDKNLTCVVGTDADFSILLTYDPATERLYIYSSLLTELPDHPPLRMKLYEVLLEGSLLGREVCGGGVGLSTQNNVVVLTTSLPVRHCSPEALCEVMPLFVETLVRWRSLIDELVR” it was “soluble”. In the case of “GPGSMTQNIIRRIFGNRELPENLSGSEYERYMQENFPKWIDEFEKGGFLEATKLPAIKSERDFLSKLIEHKDEIMVVKYWKHGCIPCLSLAEMYKQVSEQCKKENRRIAWYSVNTKDVSARSLVDYQLVNGTPTVQTFSRMKQVGKEIRAISAEELMRELSLREAALNTES” it was “soluble”; in that of “TRTLRGVMRVGLVAKCLLLKGDLDLELVLLCKEKPTTALLDKVADNLAIQLAAVTEDKYEILQSVDDAAIVIKNTKEPPLSLTIHLTSPVVREEMEKVLAGETLSVNDPPDVLDRQKCLAALASLRHAKWFQARANGLKSCVIVIRVLRDLCTRVPTWGPLRGWPLELLCEKSIGTANRPMGAGEALRRVLECLASGIVMPDGSGIYDPCEKEATDAIGHLDRQQREDITQSAQHALRLAAFGQLHKVLGMD”, “not soluble”; in that of “MRKIILASGSPRRKELLELAGVPFEIIVSEVEETIGAYSSPSDIVMSLALQKASAVAENNSDHIVLGADTIVTYESRILGKPSNKAEAKEMLQLLSGKTHEVYTGVAIIAKDKTVTFYERTEVTFWELTEEEIDAYVASKEPLDKAGSYGIQGKGSIFVQHIQGDYYSVVGLPISRLVRELKQFNIDVTHA”, “not soluble”. As for “SLTRATKGFLSKSLPKASEATPGSQSSDYIPLVSLQLASGAFLLNEAFCTTIQIPMEKLKWTSPFSCLRMSLVTRRQDLKTQSPQDCTSLSSSPPSCDGISLKSEESSDQESNAMLEHMGKLWATVVALAWLEHSSANYIIEWELVAAKASSWVEKQKVPEGRTLSTLKNTARQLFVLLRHWDEKLEFNMLCYNPNYV”, the “soluble on expression in E. coli” value is given as “soluble”. Take “MSLSQLAYEKILNLIINGKYKPGNLLKEDELANTLNISRTPVREALARLERDGIIIKSGKSYSVIPLSAEDIIQIYEIRIPLEAEASKLASIRGTEEELKKMLDIIEEIKRVKEDAEPLTLAELNGKLHRTISEASHNKFLADILENIRLKLKIVRVTLFTSFQRREEELREHSEIVTAIIERNPDKAYQLMKEHELNVLEYVKKNILPILFR”: the “soluble on expression in E. coli” value was “soluble”. For “MGSDKIHHHHHHMANLLSTCTSESGNIQHISPQNAGWEYVGFDVWQLKAGESITLPSDERERCLVLVAGLASVKAADSFFYRIGQRMSPFERIPAYSVYLPHHTEAKVTAETDLELAVCSAPGFGELPVRLISPQEVGVEHRGKGRNQRLVHNILPDSQLADSLLVVEVYTNEGDTSSWPAHKHDTAVEGQETYLEETYYHRFNPPQGFCLQRVYTDDRSLDECMAVYNRDVVKVPKGYHPVATIAGYDNYYLNVMAGPLRKWRFTWEENHAWINSPDYPR”, the “soluble on expression in E. coli” value is listed as “not soluble”. The value for “MVNKEHFSKKFDADLEEIRTRVLQMGGLVEEQIKNAIEALTEGNEHMIEQVIDNDHRVNAMEVKIDELCSQIIVRRQPTAIDLRMIMTVINTITDLERIGDEAAKIARMAKLIYAADRMYTPRFVEIRHIAAIAMDMLRKALDAFARVDPNASAEIVRQDEQVDEEFRSIIRHLVTFMMEDPRKISTAIEILFAAKAVERIGDHAKNMSEYVVYMVKGKDVRHVSADEIEREVGK” was “not soluble”. The value for “MGSDKIHHHHHHMMTLTVEYYFTHPQDKLGMYASDPEDNSQEHGHEFAELVIVEEGHGLHVINGRPLYIQQGDVFYVQPGDVHYYDELGTLKLINVLINPAVAFGYLQQMEGLLQQLSAQRAACYGWLAPETRSYCRELVEKIFSPALRAADNTPLRESLFFQLVTTILTAESEAEYSSTRYKLHKLLTWLQEHCFEEHNWQQLAEQFHLTTRTAFRHIKEATGLTPDNYLKRLRLVSARVKLRETEMTITEVAYLCGFANSNHFTTLYKKVFGLTPSADRRRPPG” was “not soluble”.
